Reference: publication PMC2901396

Target: DNA polymerase gamma catalytic subunit p140, Exo- R964C (Homo sapiens, UniProt P54098 26-1239, D198A;E200A;R964C)
Experiment: EMSA

Chain of DNA polymerase gamma catalytic subunit p140, Exo- R964C (P54098 26-1239 D198A/E200A/R964C): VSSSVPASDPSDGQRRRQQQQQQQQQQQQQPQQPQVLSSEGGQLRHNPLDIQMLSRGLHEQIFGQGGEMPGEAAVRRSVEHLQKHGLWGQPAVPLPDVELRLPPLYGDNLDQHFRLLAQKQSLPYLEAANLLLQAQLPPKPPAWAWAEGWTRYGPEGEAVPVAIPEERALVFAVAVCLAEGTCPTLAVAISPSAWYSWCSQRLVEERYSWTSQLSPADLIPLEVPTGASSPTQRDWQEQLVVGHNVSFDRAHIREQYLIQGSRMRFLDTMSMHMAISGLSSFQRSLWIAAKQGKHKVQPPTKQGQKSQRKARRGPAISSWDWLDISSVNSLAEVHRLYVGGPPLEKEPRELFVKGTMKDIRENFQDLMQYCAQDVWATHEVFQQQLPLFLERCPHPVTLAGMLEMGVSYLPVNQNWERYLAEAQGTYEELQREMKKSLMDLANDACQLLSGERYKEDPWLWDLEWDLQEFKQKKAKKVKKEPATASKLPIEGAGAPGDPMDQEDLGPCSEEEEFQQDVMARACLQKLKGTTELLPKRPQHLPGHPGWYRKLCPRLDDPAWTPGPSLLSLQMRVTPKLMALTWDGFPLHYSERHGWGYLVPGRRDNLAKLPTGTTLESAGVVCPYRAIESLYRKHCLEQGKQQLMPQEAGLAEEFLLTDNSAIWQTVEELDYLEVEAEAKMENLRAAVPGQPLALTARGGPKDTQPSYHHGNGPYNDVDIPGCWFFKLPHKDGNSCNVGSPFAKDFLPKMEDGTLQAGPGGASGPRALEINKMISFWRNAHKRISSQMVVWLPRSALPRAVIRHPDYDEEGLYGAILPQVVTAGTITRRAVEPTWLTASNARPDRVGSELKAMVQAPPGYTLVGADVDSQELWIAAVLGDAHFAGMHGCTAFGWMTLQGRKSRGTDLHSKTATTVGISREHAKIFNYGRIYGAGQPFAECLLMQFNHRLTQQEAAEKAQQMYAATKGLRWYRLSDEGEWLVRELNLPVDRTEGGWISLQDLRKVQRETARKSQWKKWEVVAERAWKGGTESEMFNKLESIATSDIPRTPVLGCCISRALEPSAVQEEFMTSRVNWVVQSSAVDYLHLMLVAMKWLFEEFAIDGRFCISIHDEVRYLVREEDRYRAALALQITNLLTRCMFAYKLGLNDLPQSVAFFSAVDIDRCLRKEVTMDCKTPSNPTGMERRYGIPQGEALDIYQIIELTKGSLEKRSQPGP

B1: 38-mer/34-mer primer-template (dsDNA)
DNA 1: TTATCGCACCTACGTTCAATATTACAGGCGAACATACT
DNA 2: GTATGTTCGCCTGTAATATTGAACGTAGGTGCGA
- Kd: 0.075 ± 0.004 µM
